Data from US20220048996A1.

How the values were obtained:
[1] = target: mouse CD137 expressed on DO11.10 cells (DO11.10-mCD137) (mouse) (UniProt P20334); experiment: flow cytometry on DO11.10 cells expressing the target
[2] = target: human OX40 expressed on DO11.10 cells (DO11.10-hOX40) (human) (UniProt P43489); experiment: as above
[3] = target: cynomolgus OX40 expressed on DO11.10 cells (DO11.10-cOX40) (cynomolgus); experiment: as above
[4] = target: human OX40 expressed on DO11.10 cells (DO11.10-hOX40) (human) (UniProt P43489); experiment: cell-based or functional assay
hOX40-mFc (human) = experiment: SPR, antibody captured via anti-human Fab, dimeric antigen flowed, 1:1 fit
hOX40-mFc (human), sequence (chain, as listed by the source limits assumed): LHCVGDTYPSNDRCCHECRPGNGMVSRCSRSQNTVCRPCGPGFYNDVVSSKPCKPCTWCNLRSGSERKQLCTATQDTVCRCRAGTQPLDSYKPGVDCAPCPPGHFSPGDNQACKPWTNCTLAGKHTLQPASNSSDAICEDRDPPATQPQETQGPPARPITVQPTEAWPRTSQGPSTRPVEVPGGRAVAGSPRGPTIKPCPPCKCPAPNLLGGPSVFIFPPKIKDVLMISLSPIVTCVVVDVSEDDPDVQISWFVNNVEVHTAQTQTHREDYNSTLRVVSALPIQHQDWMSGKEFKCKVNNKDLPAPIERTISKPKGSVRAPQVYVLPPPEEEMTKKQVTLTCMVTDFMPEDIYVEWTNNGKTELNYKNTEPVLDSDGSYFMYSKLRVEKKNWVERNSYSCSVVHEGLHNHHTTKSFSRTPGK

[5] = target: hFcγR3a (R&D Systems 4325-FC-050/CF) (human) (UniProt P08637); experiment: SPR, antibody 100 nM on OX40-his chip co-injected with FcγR 500 nM
hFcγR3a (R&D Systems 4325-FC-050/CF) (human), sequence (P08637 17-208 limits assumed): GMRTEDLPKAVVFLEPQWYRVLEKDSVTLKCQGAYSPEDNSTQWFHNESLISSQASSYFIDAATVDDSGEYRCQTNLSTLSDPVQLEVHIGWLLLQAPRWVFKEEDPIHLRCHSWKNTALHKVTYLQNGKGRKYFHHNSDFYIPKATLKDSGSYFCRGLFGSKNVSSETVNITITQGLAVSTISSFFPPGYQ

[6] = target: hFcγR2b (R&D Systems 1460-CD-050/CF) (human) (UniProt P31994); experiment: as above
hFcγR2b (R&D Systems 1460-CD-050/CF) (human), sequence (P31994 46-217 limits assumed): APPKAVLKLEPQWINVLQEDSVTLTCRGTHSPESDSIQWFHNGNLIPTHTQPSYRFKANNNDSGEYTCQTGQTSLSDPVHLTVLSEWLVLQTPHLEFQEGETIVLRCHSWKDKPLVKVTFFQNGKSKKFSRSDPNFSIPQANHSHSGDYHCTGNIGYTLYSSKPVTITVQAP

[7] = target: hFcγR2a (R&D Systems 1330-CD-050/CF) (human) (UniProt P12318); experiment: as above
hFcγR2a (R&D Systems 1330-CD-050/CF) (human), sequence (P12318 36-218 limits assumed): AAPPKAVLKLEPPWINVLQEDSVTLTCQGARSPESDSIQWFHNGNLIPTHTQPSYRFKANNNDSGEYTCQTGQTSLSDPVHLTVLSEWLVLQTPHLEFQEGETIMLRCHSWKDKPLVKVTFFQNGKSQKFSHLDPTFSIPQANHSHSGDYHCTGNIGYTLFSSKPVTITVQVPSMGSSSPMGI

[8] = target: hFcγR1 (R&D Systems 1257-FC-050/CF) (human) (UniProt P12314); experiment: as above
hFcγR1 (R&D Systems 1257-FC-050/CF) (human), sequence (P12314 16-288 limits assumed): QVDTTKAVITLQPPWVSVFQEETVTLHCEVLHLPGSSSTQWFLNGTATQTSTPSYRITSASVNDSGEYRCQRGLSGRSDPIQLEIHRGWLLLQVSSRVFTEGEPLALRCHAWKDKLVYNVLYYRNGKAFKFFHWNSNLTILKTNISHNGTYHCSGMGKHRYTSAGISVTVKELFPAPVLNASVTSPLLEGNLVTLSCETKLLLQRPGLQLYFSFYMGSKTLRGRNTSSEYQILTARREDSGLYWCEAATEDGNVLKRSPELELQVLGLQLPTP

[9] = target: hFcγR3a (R&D Systems 4325-FC-050/CF) (human) (UniProt P08637); experiment: SPR, antibody 100 nM on CD137-his chip co-injected with FcγR 500 nM
[10] = target: hFcγR2b (R&D Systems 1460-CD-050/CF) (human) (UniProt P31994); experiment: as above
[11] = target: hFcγR2a (R&D Systems 1330-CD-050/CF) (human) (UniProt P12318); experiment: as above
[12] = target: hFcγR1 (R&D Systems 1257-FC-050/CF) (human) (UniProt P12314); experiment: as above
[13] = target: mouse CD137 expressed on DO11.10 cells (DO11.10-mCD137) (mouse) (UniProt P20334); experiment: cell-based or functional assay
[14] = target: cynomolgus OX40 expressed on DO11.10 cells (DO11.10-cOX40) (cynomolgus); experiment: flow cytometry on DO11.10-cOX40
[15] = target: human OX40 expressed on DO11.10 cells (DO11.10-hOX40) (human) (UniProt P43489); experiment: flow cytometry on DO11.10-hOX40

human OX40 expressed on DO11.10 cells (DO11.10-hOX40) (human), sequence (P43489 29-277): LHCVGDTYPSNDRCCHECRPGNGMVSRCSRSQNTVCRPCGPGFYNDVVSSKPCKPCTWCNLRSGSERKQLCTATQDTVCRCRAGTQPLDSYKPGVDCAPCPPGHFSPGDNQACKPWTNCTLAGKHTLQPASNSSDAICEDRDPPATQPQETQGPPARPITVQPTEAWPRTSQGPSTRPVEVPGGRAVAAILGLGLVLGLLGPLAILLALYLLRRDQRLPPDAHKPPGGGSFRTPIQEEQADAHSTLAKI
mouse CD137 expressed on DO11.10 cells (DO11.10-mCD137) (mouse), sequence (P20334 24-256): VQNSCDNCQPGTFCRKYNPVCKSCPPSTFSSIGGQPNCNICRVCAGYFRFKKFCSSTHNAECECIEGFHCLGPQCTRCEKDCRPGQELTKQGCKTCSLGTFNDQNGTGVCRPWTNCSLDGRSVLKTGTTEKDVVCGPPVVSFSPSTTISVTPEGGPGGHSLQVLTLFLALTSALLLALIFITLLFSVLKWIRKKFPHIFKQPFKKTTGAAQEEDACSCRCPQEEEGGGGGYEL
cynomolgus OX40 expressed on DO11.10 cells (DO11.10-cOX40) (cynomolgus), sequence (P43489 other isoform, or with tags, fused parts or gaps): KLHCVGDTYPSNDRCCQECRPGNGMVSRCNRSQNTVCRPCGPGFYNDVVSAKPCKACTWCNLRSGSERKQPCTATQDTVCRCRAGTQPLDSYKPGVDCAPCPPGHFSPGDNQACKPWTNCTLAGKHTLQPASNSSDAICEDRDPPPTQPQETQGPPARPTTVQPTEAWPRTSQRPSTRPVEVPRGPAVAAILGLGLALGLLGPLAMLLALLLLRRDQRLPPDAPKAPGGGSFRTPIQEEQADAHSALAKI

Substance	SEA assay (PBMC), hIL-2 max response, crosslinked [4]	SEA assay (PBMC), hIL-2 release EC50, crosslinked [4]	pan-T cell activation assay, hIL-2 max response, crosslinked [4]	pan-T cell activation assay, hIL-2 release EC50, crosslinked [4]	binding response at end of association phase of FcγR [5]	binding response at end of association phase of FcγR [6]	binding response at end of association phase of FcγR [7]	binding response at end of association phase of FcγR [8]	decrease of binding response at end of dissociation phase of FcγR [8]	other results
G1/Lob12.3 (antibody)										EC50 [1]: 0.121 nM
G1/11D4 (antibody)	6610 pg/mL	0.13 nM	6380 pg/mL	0.0513 nM	143 RU	89.7 RU	123 RU	370 RU	46.4 RU	EC50 [2]: 0.125 nM; EC50 [3]: 0.0941 nM; Kd (hOX40-mFc (human)): 0.0337 nM
G4/20H4.9 (antibody)										binding response at end of association phase of FcγR [9]: 113 RU; binding response at end of association phase of FcγR [10]: 164 RU; binding response at end of association phase of FcγR [11]: 156 RU; binding response at end of association phase of FcγR [12]: 693 RU; decrease of binding response at end of dissociation phase of FcγR [12]: 57.1 RU
G1AA/Lob12.3 (antibody)										mouse pan-T cell activation assay, mIL-2 max response, crosslinked [13]: 374 pg/mL; mouse pan-T cell activation assay, mIL-2 release EC50, crosslinked [13]: 1.18 nM
G1AA/11D4 (antibody)	4270 pg/mL	0.0716 nM	4130 pg/mL	0.13 nM	67.3 RU	60.9 RU	64.5 RU	292 RU	203 RU	CD4+ T cell activation assay, hIL-2 max response, crosslinked [4]: 8820 pg/mL; CD4+ T cell activation assay, hIL-2 release EC50, crosslinked [4]: 0.0813 nM; CD8+ T cell activation assay, hIL-2 max response, crosslinked [4]: 388 pg/mL; CD8+ T cell activation assay, hIL-2 release EC50, crosslinked [4]: 0.0996 nM; EC50 [14]: 0.213 nM; EC50 [15]: 0.814 nM
